This is an account of results in patent US20100196385A1 (AstraZeneca / MedImmune, published 2010).

Where a chain is given by its changes, count along the chain named. Numbers in names are those of the source.

For test [1], the target named is DLL4 extracellular domain (R&D systems, catalog #1506-D4/CF) (UniProt Q9NR61 27-529, limits assumed). The experiment in a line: cell-based or functional assay.
Test [2] addresses T1, human Dll1 (human, UniProt O00548 18-723).
T1 construct: whole, on cells
T1 sequence (looked up): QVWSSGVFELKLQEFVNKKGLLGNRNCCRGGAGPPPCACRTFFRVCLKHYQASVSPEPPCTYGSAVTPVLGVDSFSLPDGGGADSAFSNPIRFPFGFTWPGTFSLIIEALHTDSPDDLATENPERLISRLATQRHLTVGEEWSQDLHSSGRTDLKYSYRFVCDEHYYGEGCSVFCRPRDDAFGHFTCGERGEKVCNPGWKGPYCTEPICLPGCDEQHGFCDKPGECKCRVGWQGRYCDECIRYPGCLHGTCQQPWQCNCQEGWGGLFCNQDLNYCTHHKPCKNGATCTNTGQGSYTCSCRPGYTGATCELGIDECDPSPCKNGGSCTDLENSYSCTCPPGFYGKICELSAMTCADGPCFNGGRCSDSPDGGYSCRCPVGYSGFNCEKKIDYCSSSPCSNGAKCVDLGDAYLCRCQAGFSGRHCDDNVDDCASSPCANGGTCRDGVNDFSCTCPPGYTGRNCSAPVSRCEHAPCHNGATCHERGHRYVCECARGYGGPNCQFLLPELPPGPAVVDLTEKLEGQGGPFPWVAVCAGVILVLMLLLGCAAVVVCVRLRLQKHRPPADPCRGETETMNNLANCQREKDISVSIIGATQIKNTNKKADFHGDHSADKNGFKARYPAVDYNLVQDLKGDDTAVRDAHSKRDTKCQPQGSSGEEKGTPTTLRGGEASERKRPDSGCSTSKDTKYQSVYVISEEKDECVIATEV
Description: FACS, 15 µg/ml, 293T cells with human Dll1. Here is the method:
(§1) The ability of the purified antibodies to bind to human Jagged1 and Dll1 was determined by FACS analysis. […] Cells were resuspended in PBS containing 2% FCS and seeded at 50000 cells/well into V-bottomed plates. Anti-DLL4 antibodies diluted in PBS containing 2% FCS were added at a final concentration of 5 or 15 μg/ml and plates were incubated for 1 h at 4° C. […] Data was analyzed by comparing the shift in geometric mean fluorescence in the mock-transfected cells to that observed in the Jagged1- or Dll1-transfected cells and is shown in Tables 16 and 17.
A general note: Flow cytometry measures light scatter and fluorescence of single cells or particles in a stream.

For test [3], the target named is T2, human Jagged1 (human, UniProt P78504 34-1218).
T2 construct: whole, on cells
The experiment in a line: FACS, 5 µg/ml, 293T cells with human Jagged1. Here is the method:
as §1

For test [4], the target named is T1, human Dll1. Description: FACS, 15 µg/ml, 293T cells with human Dll1 vs mock. On the procedure:
as §1

Test [5] deals with T2, human Jagged1. The experiment in a line: FACS, 5 µg/ml, 293T cells with human Jagged1 vs mock. On the procedure:
as §1

The target in test [6] is T3, full length human DLL4 (human, UniProt Q9NR61 27-685).
T3 construct: whole, on cells; also called native DLL4 expressed in HEK293 cells
Description: FMAT, hybridoma supernatant, 293T cells with human DLL4. On the procedure: (§2) Cells diluted in PBS containing 2% FBS were seeded at a density of 3000 expressing and 15000 mock transfected cells per well in 384 well plates (Corning Costar, catalog #3712). Immediately after plating, 15 or 20 μl/well of hybridoma supernatants and 10 μl/well of secondary antibody (Goat anti-human IgG Fc Cy5, final concentration 750 ng/ml) were added and plates incubated for 3 h at room temperature prior to reading the fluorescence on the FMAT 8200 instrument (Applied Biosystems). The binding of human Notch1/Fc chimera (R&D systems, catalog #3647-TK), diluted 1:2 from 2.86 μg/ml was used as a positive control for DLL4 and human Notch3/Fc chimera diluted from 10 μg/ml was used a positive control for binding to Jagged1. Results for 12 hybridoma supernatants showing binding of hybridoma supernatants to human/cynomolgus monkey DLL4 and human Jagged are shown in Table 3.

In test [7] the target is T2, human Jagged1. Description: FMAT, hybridoma supernatant, 293T cells with human Jagged1. On the procedure:
as §2

In test [8] the target is T3, full length human DLL4. The experiment in a line: FMAT competition, supernatant vs Alexa-647 human Notch1/Fc, 293T cells with human DLL4. On the procedure: Transfected and untransfected 239T cells were reconstituted in PBS containing 2% FCS and 5000 transfected and 17500 non-transfected cells were plated in 20 μl into wells of a 384-well tissue culture plate (Corning Costar, catalog #3712). Subsequently, 20 μl of hybridoma supernatant was added and plates were incubated at 4° C. for 1 h, at which time 20 μl of Alexa-647 labeled human Notch1/Fc was added at a final concentration of 6.7 ng/ml. After a further 3 h incubation at 4° C., the amount of bound Notch1/Fc was determined by reading the fluorescence in each well using an FMAT 8200 instrument (Applied Biosystems). Results are expressed as % inhibitions with the minimum inhibition in the assay being determined by the effects of non-DLL4 binding supernatants prepared in a similar way as described in example 2, and the maximum inhibition being defined as the signal obtained in the presence of a saturating concentration of unlabeled Notch1/Fc. N.T.=not tested

For test [9], the target named is T3, full length human DLL4. The experiment in a line: FMAT competition, purified antibody vs Alexa-647 human Notch1/Fc, 293T cells with human DLL4. Here is the method:
To discriminate between the purified antibodies based upon their ability to prevent the interaction between full-length recombinant DLL4 and soluble Notch1/Fc, the following assays were performed. Transfected and untransfected 239T cells were reconstituted in PBS containing 2% FCS and 5000 transfected and 17500 non-transfected cells were plated in 30 μl into wells of a 384-well tissue culture plate (Corning Costar, catalog #3712). Subsequently, 30 μl of purified antibodies, serial diluted from 5 μg/ml hybridoma supernatant was added and plates were incubated at 4° C. for 1 h, at which time 20 μl of 100 ng/ml Alexa-647 labeled human Notch1/Fc was added. After a further 3 h incubation at 4° C., the amount of bound Notch1/Fc was determined by reading the fluorescence in each well using an FMAT 8200 instrument (Applied Biosystems).

The target of test [10] is T3, full length human DLL4. The experiment in a line: FACS binding, HEK293 cells with human DLL4. Here is the method:
(§3) The activity of the mutated antibodies was assessed in two ways: firstly, the ability of the antibodies to block the binding of soluble Notch1/Fc to full length human DLL4 stably expressed in HEK293 cells as described in Example 3 was determined and, secondly, the binding of the antibodies to the same cell line used in the receptor-ligand competition studies was determined. For the binding studies, HEK293 cells stably overexpressing human DLL4 were resuspended in PBS containing 2% FCS at a concentration of 50,000 cells/well and incubated with titrations of antibody (final concentrations 0.01-10 μg/ml) for 1 h at 4° C. The cells were then washed and incubated with 0.31 μg/ml anti-human IgG-Fc-FITC (BD Pharmingen, cat#555786) for 30 minutes at 4° C. Bound […] was detected using FACS analysis. Results of these studies are summarized in Table 23, which show the effects of specific mutations to sequences of 9G8 and 2H10 on the ability of the antibodies to compete with Notch1 for binding to human DLL4 or to bind to human DLL4 relative to unmutated antibodies.

In test [11] the target is T3, full length human DLL4. Description: FACS competition vs Notch1/Fc, HEK293 cells with human DLL4. Here is the method:
Further experiments were performed on selected antibodies using HEK293 cells that were stably transfected with either human, mouse or cynomolgus monkey DLL4 using retroviral constructs. In these experiments, anti-DLL4 antibodies (final concentration: 10-0.01 μg/ml) diluted in PBS containing 2% FCS were added to DLL4-expressing HEK 293 cells (50000 cells/well diluted in PBS containing 2% FCS) and incubated for 1 h at 4° C. Subsequently, Alexa-647 labeled human, rat or APC labeled mouse Notch1/Fc (e.g. R&D Systems, catalog #3647-TK-050, 1057-TK-050, 5267-TK-050, respectively) was added at a final concentration of 0.01-0.5 μg/ml and plates were incubated for a further 2 h at 4° C. prior to washing and reading on a FACSCalibur instrument.
as §3

T2 sequence (P78504 34-1218): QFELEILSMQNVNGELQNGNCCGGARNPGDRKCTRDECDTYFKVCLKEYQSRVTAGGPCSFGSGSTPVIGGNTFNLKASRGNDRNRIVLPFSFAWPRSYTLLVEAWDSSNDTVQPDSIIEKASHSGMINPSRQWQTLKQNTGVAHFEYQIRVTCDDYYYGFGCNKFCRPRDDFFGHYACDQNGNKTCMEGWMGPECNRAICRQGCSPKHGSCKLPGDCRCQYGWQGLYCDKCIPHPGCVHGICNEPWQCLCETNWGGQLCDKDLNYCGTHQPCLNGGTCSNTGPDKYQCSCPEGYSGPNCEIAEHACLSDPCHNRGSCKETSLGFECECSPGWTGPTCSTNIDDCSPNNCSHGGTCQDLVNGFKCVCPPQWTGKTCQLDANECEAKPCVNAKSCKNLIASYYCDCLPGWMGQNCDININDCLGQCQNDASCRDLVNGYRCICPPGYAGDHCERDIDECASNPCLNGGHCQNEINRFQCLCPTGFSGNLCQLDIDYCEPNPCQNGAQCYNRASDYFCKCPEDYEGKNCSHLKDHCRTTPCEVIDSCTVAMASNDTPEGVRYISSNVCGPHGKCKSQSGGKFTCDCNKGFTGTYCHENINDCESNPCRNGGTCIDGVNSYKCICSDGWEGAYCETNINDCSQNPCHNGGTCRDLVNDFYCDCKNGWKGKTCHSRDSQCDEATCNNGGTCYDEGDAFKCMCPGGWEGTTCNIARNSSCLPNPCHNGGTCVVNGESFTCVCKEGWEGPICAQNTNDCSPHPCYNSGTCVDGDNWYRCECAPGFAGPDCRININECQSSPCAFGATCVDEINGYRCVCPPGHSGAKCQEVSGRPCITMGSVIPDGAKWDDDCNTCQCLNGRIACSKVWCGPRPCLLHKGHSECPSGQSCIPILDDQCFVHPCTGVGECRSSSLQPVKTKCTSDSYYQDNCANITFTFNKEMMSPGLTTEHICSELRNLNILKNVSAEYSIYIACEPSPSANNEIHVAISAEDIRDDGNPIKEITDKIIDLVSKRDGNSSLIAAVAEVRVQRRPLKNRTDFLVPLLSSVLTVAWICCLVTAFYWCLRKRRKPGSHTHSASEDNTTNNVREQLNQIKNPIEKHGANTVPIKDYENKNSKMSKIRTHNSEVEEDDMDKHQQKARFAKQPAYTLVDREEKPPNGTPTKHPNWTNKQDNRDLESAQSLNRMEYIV
T3 sequence (Q9NR61 27-685): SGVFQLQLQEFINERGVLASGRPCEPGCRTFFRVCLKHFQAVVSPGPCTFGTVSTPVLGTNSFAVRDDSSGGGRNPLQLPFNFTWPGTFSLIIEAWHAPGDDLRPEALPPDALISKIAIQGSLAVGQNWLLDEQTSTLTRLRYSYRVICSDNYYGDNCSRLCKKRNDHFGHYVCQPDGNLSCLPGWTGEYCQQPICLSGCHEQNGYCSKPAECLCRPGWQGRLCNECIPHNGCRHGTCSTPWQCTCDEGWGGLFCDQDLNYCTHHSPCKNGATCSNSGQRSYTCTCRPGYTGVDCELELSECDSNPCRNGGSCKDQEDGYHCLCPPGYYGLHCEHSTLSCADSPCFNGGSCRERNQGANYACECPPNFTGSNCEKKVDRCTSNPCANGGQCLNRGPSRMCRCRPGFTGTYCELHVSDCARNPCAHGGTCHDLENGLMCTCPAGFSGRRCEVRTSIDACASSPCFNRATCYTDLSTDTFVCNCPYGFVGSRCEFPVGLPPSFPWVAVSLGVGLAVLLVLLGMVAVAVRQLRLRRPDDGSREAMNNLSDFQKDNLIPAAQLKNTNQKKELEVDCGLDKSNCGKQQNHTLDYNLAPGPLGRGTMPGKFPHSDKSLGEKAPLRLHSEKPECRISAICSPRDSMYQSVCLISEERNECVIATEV
Sequence of DLL4 extracellular domain (R&D systems, catalog #1506-D4/CF) (Q9NR61 27-529 limits assumed): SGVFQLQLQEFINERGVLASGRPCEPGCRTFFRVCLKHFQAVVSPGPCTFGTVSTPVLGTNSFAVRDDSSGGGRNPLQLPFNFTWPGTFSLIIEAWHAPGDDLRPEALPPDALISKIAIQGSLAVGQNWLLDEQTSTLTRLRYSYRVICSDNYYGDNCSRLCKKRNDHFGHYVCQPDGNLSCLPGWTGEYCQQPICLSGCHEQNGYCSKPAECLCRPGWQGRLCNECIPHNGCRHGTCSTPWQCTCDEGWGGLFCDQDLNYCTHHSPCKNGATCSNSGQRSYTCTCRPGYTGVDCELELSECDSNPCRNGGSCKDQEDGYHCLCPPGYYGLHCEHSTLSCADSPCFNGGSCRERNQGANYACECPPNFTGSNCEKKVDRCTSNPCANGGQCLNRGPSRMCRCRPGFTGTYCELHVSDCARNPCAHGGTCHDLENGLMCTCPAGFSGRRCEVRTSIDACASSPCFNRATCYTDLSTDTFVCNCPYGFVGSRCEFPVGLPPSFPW

B1: 21F7 (antibody, IgG2, V domains shown)
VH: QVQLVQSGAEVKKPGASVKVSCQASGYTFTNYGISWVRQAPGQGLEWMGWINAYNGNTNYAQNLQGRVTMTTDTSTNTAYMELRSLRSDDTAVYYCARVAAAAFFDYWDQGTLVTVSS
VL: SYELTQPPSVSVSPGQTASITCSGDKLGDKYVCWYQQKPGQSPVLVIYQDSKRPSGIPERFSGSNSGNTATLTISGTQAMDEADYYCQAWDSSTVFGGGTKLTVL
notes: Fully human; also used where no isotype is printed
With B1, in [1], the “% inhibition 1 µg/ml, N = 1 (HUVEC proliferation on coated DLL4)” value came out at 30% and the “% inhibition 10 µg/ml, N = 1 (HUVEC proliferation on coated DLL4)” value turned out to be 48%. In addition, the “Dll1/293T X Geo mean” value with human Dll1 [2] worked out at 30.2. Further, the “Jagged1/293T X Geo mean” value with human Jagged1 [3] came to 13.8. For the same molecule, the Dll1/mock ratio with human Dll1 [4] is 1.13. Besides, the Jagged1/mock ratio in the test with human Jagged1 [5] amounted to 1.01. In addition, in the test with full length human DLL4 [6], the Count was found to be 200, the FL1 is 10400 and the FL1 x count stood at 2.08e+06. In addition, in the test with human Jagged1 [7], the Count stood at 1, the FL1 came out at 2070 and the FL1 x count was 2070. In the test with full length human DLL4 [8], the “% inhibition n = 2” value was found to be 93%, the “% inhibition n = 3” value stood at 140% and the Mean % inhibition is 117%. In the test with full length human DLL4 [9], the % inhibition (in general, the change of the read-out against control, counted positive when it falls) at 0.020 nM came to 11%; the “% inhibition at 0.070 nM” value amounted to 17%; the “% inhibition at 0.21 nM” value stood at 7%; the “% inhibition at 0.62 nM” value was -22%. Further, in the test with full length human DLL4 [9], the “% inhibition at 1.9 nM” value is 35%, the “% inhibition at 5.6 nM” value came out at 116%, the “% inhibition at 16.7 nM” value is 104% and the IC50 (commonly the concentration needed to halve the response being measured) came to 1.95 nM.

B2: 2H10 IgG2 VH wt/VL wt (antibody, V domains shown)
VH: QVQLVESGGGVVQPGRSLRLSCAASGFTFSRHGMHWVRQAPGKGLEWVAVVWFDGSNIYYADSVKGRFTISRDNSKNTLYLQMNSLRAEDTAMYYCARDSRIAAADYWGQGTLVTVSS
VL: SYELTQPPSVSVSPGQTVSITCSGDKLGDKYVCWYQQKPGQSPVLVIYQESKRPSGIPERFSGSSSGNTATLTISGTQAMDEADYYCQTWDSSLVVFGGGTKLTVL
notes: IgG2, transiently expressed
As for B2, a half-maximal response in the test with full length human DLL4 [10] (EC50) required 0.043 µg/mL. Moreover, in the test with full length human DLL4 [11], the IC50 worked out at 0.224 µg/mL.

B3: 2H10 IgG2 VH wt/VL C33S (antibody, V domains shown)
VH: B2 VH
VL: B2 VL with C33S
notes: IgG2
For the molecule B3, the midpoint of the response with full length human DLL4 [10], the EC50, lay at 0.031 µg/mL. In the test with full length human DLL4 [11], this molecule gave an IC50 of 0.084 µg/mL.

B4: 9G8 IgG2 VH wt/VL wt (antibody, V domains shown)
VH: QLQLQESGPGLVKPSETLSLSCTVSGGSISSSSSYWGLIRQPPGKGLEWIGSIYYSGSTYYSPSLKSRVSISVDTSKNQFSLKLSSVTAADTAVYFCARQGYGGHPDVFDIWGQGTMVTVSS
VL: SSELTQSPSVSVSPGQTARITCSGDKLGDVYVCWYQQKTGQSPVLVIYEDTKRPSGIPERFSGSNSGNTATLTISGTQVMDEADYYCQAWDSTTAVIFGGGTKLTVL
notes: IgG2, transiently expressed
As to B4, a half-maximal effect in the test with full length human DLL4 [10] (EC50) was put at 0.071 µg/mL. Besides, the IC50 with full length human DLL4 [11] was 0.17 µg/mL.

B5: 9G8 IgG2 VH wt/VL C33S (antibody, V domains shown)
VH: B4 VH
VL: B4 VL with C33S
notes: IgG2
For the molecule B5, the EC50 – broadly, the concentration giving half of the maximal effect – with full length human DLL4 [10] came to 0.067 µg/mL. The same molecule had an IC50 in the test with full length human DLL4 [11] of 0.136 µg/mL.

B6: 9G8 IgG2 VH L38W/VL C33S (antibody, V domains shown)
VH: B4 VH with L38W
VL: B4 VL with C33S
notes: IgG2
Take B6: the EC50 with full length human DLL4 [10] stood at 0.051 µg/mL. For the same molecule, the IC50 with full length human DLL4 [11] worked out at 0.107 µg/mL.

B7: 9G8 IgG2 VH L38W/VL S7P (antibody, V domains shown)
VH: B4 VH with L38W
VL: B4 VL with S7P
notes: IgG2
The molecule B7 gave an EC50 in the test with full length human DLL4 [10] of 0.074 µg/mL. Further, the concentration for half-maximal inhibition (IC50) with full length human DLL4 [11] was found to be 0.155 µg/mL.

B8: 9G8 IgG2 VH wt/VL S7P (antibody, V domains shown)
VH: B4 VH
VL: B4 VL with S7P
notes: IgG2
B8 yielded an EC50 with full length human DLL4 [10] of 0.082 µg/mL. This molecule also had an IC50 with full length human DLL4 [11] of 0.181 µg/mL.

B9: 9G8 IgG2 VH L38W/VL wt (antibody, V domains shown)
VH: B4 VH with L38W
VL: B4 VL
notes: IgG2
The molecule B9 yielded an EC50 with full length human DLL4 [10] of 0.07 µg/mL. Moreover, in the test with full length human DLL4 [11], the IC50 was 0.133 µg/mL.

B10: 9G8 IgG2 VH wt/VL V79A (antibody, V domains shown)
VH: B4 VH
VL: B4 VL with V79A
notes: IgG2
In the test with full length human DLL4 [10], B10 showed an EC50 of 0.095 µg/mL. For the same molecule, the IC50 with full length human DLL4 [11] was found to be 0.211 µg/mL.
